Data taken from PMC12859517.

Tests used:
[1] = biological target: Full-length MctBsm (MctB of M. smegmatis) (M. smegmatis)
[2] = biological target: Full-length MctBsm (MctB of M. smegmatis) (M. smegmatis); experiment: SDS-PAGE under mild conditions with Western blot; 0.1% SDS in loading buffer, no reducing agent, not boiled, run in an ice bath; protein purified in OPOE; gel slices eluted with OPOE and run again

“Full-length MctBsm (MctB of M. smegmatis) (natural protein)” gave a channel insertions in lipid bilayer experiments (DphPC, 1 M KCl, 10 mM Hepes pH 7.0, 100 mV), purified MctBsm before fractionation [1] of 20 pS and a stoichiometry N [2] of over 2.
